Eight molecules from PMC10540216, “Activity Guided Azide-methyllysine Photo-trapping for Substrate Profiling of Lysine Demethylases” (Journal of the American Chemical Society, 2023) can be followed below.

To fix the notation:
B1: CDC5L_HUMAN (protein, UniProt Q99459 1-802, looked up)
Cell division cycle 5-like …: MPRIMIKGGVWRNTEDEILKAAVMKYGKNQWSRIASLLHRKSAKQCKARWYEWLDPSIKKTEWSREEEEKLLHLAKLMPTQWRTIAPIIGRTAAQCLEHYEFLLDKAAQRDNEEETTDDPRKLKPGEIDPNPETKPARPDPIDMDEDELEMLSEARARLANTQGKKAKRKAREKQLEEARRLAALQKRRELRAAGIEIQKKRKRKRGVDYNAEIPFEKKPALGFYDTSEENYQALDADFRKLRQQDLDGELRSEKEGRDRKKDKQHLKRKKESDLPSAILQTSGVSEFTKKRSKLVLPAPQISDAELQEVVKVGQASEIARQTAEESGITNSASSTLLSEYNVTNNSVALRTPRTPASQDRILQEAQNLMALTNVDTPLKGGLNTPLHESDFSGVTPQRQVVQTPNTVLSTPFRTPSNGAEGLTPRSGTTPKPVINSTPGRTPLRDKLNINPEDGMADYSDPSYVKQMERESREHLRLGLLGLPAPKNDFEIVLPENAEKELEEREIDDTYIEDAADVDARKQAIRDAERVKEMKRMHKAVQKDLPRPSEVNETILRPLNVEPPLTDLQKSEELIKKEMITMLHYDLLHHPYEPSGNKKGKTVGFGTNNSEHITYLEHNPYEKFSKEELKKAQDVLVQEMEVVKQGMSHGELSSEAYNQVWEECYSQVLYLPGQSRYTRANLASKKDRIESLEKRLEINRGHMTTEAKRAAKMEKKMKILLGGYQSRAMGLMKQLNDLWDQIEQAHLELRTFEELKKHEDSAIPRRLECLKEDVQRQQEREKELQHRYADLLLEKETLKSKF
B2: HXK2_HUMAN (protein, UniProt P52789 1-917, looked up)
Hexokinase-2: MIASHLLAYFFTELNHDQVQKVDQYLYHMRLSDETLLEISKRFRKEMEKGLGATTHPTAAVKMLPTFVRSTPDGTEHGEFLALDLGGTNFRVLWVKVTDNGLQKVEMENQIYAIPEDIMRGSGTQLFDHIAECLANFMDKLQIKDKKLPLGFTFSFPCHQTKLDESFLVSWTKGFKSSGVEGRDVVALIRKAIQRRGDFDIDIVAVVNDTVGTMMTCGYDDHNCEIGLIVGTGSNACYMEEMRHIDMVEGDEGRMCINMEWGAFGDDGSLNDIRTEFDQEIDMGSLNPGKQLFEKMISGMYMGELVRLILVKMAKEELLFGGKLSPELLNTGRFETKDISDIEGEKDGIRKAREVLMRLGLDPTQEDCVATHRICQIVSTRSASLCAATLAAVLQRIKENKGEERLRSTIGVDGSVYKKHPHFAKRLHKTVRRLVPGCDVRFLRSEDGSGKGAAMVTAVAYRLADQHRARQKTLEHLQLSHDQLLEVKRRMKVEMERGLSKETHASAPVKMLPTYVCATPDGTEKGDFLALDLGGTNFRVLLVRVRNGKWGGVEMHNKIYAIPQEVMHGTGDELFDHIVQCIADFLEYMGMKGVSLPLGFTFSFPCQQNSLDESILLKWTKGFKASGCEGEDVVTLLKEAIHRREEFDLDVVAVVNDTVGTMMTCGFEDPHCEVGLIVGTGSNACYMEEMRNVELVEGEEGRMCVNMEWGAFGDNGCLDDFRTEFDVAVDELSLNPGKQRFEKMISGMYLGEIVRNILIDFTKRGLLFRGRISERLKTRGIFETKFLSQIESDCLALLQVRAILQHLGLESTCDDSIIVKEVCTVVARRAAQLCGAGMAAVVDRIRENRGLDALKVTVGVDGTLYKLHPHFAKVMHETVKDLAPKCDVSFLQSEDGSGKGAALITAVACRIREAGQR
B3: FUS_HUMAN (protein, UniProt P35637 1-526, looked up)
RNA-binding protein FUS: MASNDYTQQATQSYGAYPTQPGQGYSQQSSQPYGQQSYSGYSQSTDTSGYGQSSYSSYGQSQNTGYGTQSTPQGYGSTGGYGSSQSSQSSYGQQSSYPGYGQQPAPSSTSGSYGSSSQSSSYGQPQSGSYSQQPSYGGQQQSYGQQQSYNPPQGYGQQNQYNSSSGGGGGGGGGGNYGQDQSSMSSGGGSGGGYGNQDQSGGGGSGGYGQQDRGGRGRGGSGGGGGGGGGGYNRSSGGYEPRGRGGGRGGRGGMGGSDRGGFNKFGGPRDQGSRHDSEQDNSDNNTIFVQGLGENVTIESVADYFKQIGIIKTNKKTGQPMINLYTDRETGKLKGEATVSFDDPPSAKAAIDWFDGKEFSGNPIKVSFATRRADFNRGGGNGRGGRGRGGPMGRGGYGGGGSGGGGRGGFPSGGGGGGGQQRAGDWKCPNPTCENMNFSWRNECNQCKAPKPDGPGGGPGGSHMGGNYGDDRRGGRGGYDRGGYRGRGGDRGGFRGGRGGGDRGGFGPGKMDSRGEHRQDRRERPY
B4: CPSF6_HUMAN (protein, UniProt Q16630 1-551, looked up)
Cleavage and polyadenylation …: MADGVDHIDIYADVGEEFNQEAEYGGHDQIDLYDDVISPSANNGDAPEDRDYMDTLPPTVGDDVGKGAAPNVVYTYTGKRIALYIGNLTWWTTDEDLTEAVHSLGVNDILEIKFFENRANGQSKGFALVGVGSEASSKKLMDLLPKRELHGQNPVVTPCNKQFLSQFEMQSRKTTQSGQMSGEGKAGPPGGSSRAAFPQGGRGRGRFPGAVPGGDRFPGPAGPGGPPPPFPAGQTPPRPPLGPPGPPGPPGPPPPGQVLPPPLAGPPNRGDRPPPPVLFPGQPFGQPPLGPLPPGPPPPVPGYGPPPGPPPPQQGPPPPPGPFPPRPPGPLGPPLTLAPPPHLPGPPPGAPPPAPHVNPAFFPPPTNSGMPTSDSRGPPPTDPYGRPPPYDRGDYGPPGREMDTARTPLSEAEFEEIMNRNRAISSSAISRAVSDASAGDYGSAIETLVTAISLIKQSKVSADDRCKVLISSLQDCLHGIESKSYGSGSRRERSRERDHSRSREKSRRHKSRSRDRHDDYYRERSRERERHRDRDRDRDRERDREREYRHR
B5: RPN1_HUMAN (protein, UniProt P04843 24-607, looked up)
Dolichyl-diphosphooligosacchar …: ASSEAPPLINEDVKRTVDLSSHLAKVTAEVVLAHLGGGSTSRATSFLLALEPELEARLAHLGVQVKGEDEEENNLEVRETKIKGKSGRFFTVKLPVALDPGAKISVIVETVYTHVLHPYPTQITQSEKQFVVFEGNHYFYSPYPTKTQTMRVKLASRNVESYTKLGNPTRSEDLLDYGPFRDVPAYSQDTFKVHYENNSPFLTITSMTRVIEVSHWGNIAVEENVDLKHTGAVLKGPFSRYDYQRQPDSGISSIRSFKTILPAAAQDVYYRDEIGNVSTSHLLILDDSVEMEIRPRFPLFGGWKTHYIVGYNLPSYEYLYNLGDQYALKMRFVDHVFDEQVIDSLTVKIILPEGAKNIEIDSPYEISRAPDELHYTYLDTFGRPVIVAYKKNLVEQHIQDIVVHYTFNKVLMLQEPLLVVAAFYILFFTVIIYVRLDFSITKDPAAEARMKVACITEQVLTLVNKRIGLYRHFDETVNRYKQSRDISTLNSGKKSLETEHKALTSEIALLQSRLKTEGSDLCDRVSEMQKLDAQVKELVLKSAVEAERLVAGKLKKDTYIENEKLISGKRQELVTKIDHILDAL
B6: DDX21_HUMAN (protein, UniProt Q9NR30 1-783, looked up)
Nucleolar RNA helicase 2: MPGKLRSDAGLESDTAMKKGETLRKQTEEKEKKEKPKSDKTEEIAEEEETVFPKAKQVKKKAEPSEVDMNSPKSKKAKKKEEPSQNDISPKTKSLRKKKEPIEKKVVSSKTKKVTKNEEPSEEEIDAPKPKKMKKEKEMNGETREKSPKLKNGFPHPEPDCNPSEAASEESNSEIEQEIPVEQKEGAFSNFPISEETIKLLKGRGVTFLFPIQAKTFHHVYSGKDLIAQARTGTGKTFSFAIPLIEKLHGELQDRKRGRAPQVLVLAPTRELANQVSKDFSDITKKLSVACFYGGTPYGGQFERMRNGIDILVGTPGRIKDHIQNGKLDLTKLKHVVLDEVDQMLDMGFADQVEEILSVAYKKDSEDNPQTLLFSATCPHWVFNVAKKYMKSTYEQVDLIGKKTQKTAITVEHLAIKCHWTQRAAVIGDVIRVYSGHQGRTIIFCETKKEAQELSQNSAIKQDAQSLHGDIPQKQREITLKGFRNGSFGVLVATNVAARGLDIPEVDLVIQSSPPKDVESYIHRSGRTGRAGRTGVCICFYQHKEEYQLVQVEQKAGIKFKRIGVPSATEIIKASSKDAIRLLDSVPPTAISHFKQSAEKLIEEKGAVEALAAALAHISGATSVDQRSLINSNVGFVTMILQCSIEMPNISYAWKELKEQLGEEIDSKVKGMVFLKGKLGVCFDVPTASVTEIQEKWHDSRRWQLSVATEQPELEGPREGYGGFRGQREGSRGFRGQRDGNRRFRGQREGSRGPRGQRSGGGNKSNRSQNKGQKRSFSKAFGQ
B7: DHX15_HUMAN (protein, UniProt O43143 1-795, looked up)
ATP-dependent RNA helicase …: MSKRHRLDLGEDYPSGKKRAGTDGKDRDRDRDREDRSKDRDRERDRGDREREREKEKEKELRASTNAMLISAGLPPLKASHSAHSTHSAHSTHSTHSAHSTHAGHAGHTSLPQCINPFTNLPHTPRYYDILKKRLQLPVWEYKDRFTDILVRHQSFVLVGETGSGKTTQIPQWCVEYMRSLPGPKRGVACTQPRRVAAMSVAQRVADEMDVMLGQEVGYSIRFEDCSSAKTILKYMTDGMLLREAMNDPLLERYGVIILDEAHERTLATDILMGVLKEVVRQRSDLKVIVMSATLDAGKFQIYFDNCPLLTIPGRTHPVEIFYTPEPERDYLEAAIRTVIQIHMCEEEEGDLLLFLTGQEEIDEACKRIKREVDDLGPEVGDIKIIPLYSTLPPQQQQRIFEPPPPKKQNGAIGRKVVVSTNIAETSLTIDGVVFVIDPGFAKQKVYNPRIRVESLLVTAISKASAQQRAGRAGRTRPGKCFRLYTEKAYKTEMQDNTYPEILRSNLGSVVLQLKKLGIDDLVHFDFMDPPAPETLMRALELLNYLAALNDDGDLTELGSMMAEFPLDPQLAKMVIASCDYNCSNEVLSITAMLSVPQCFVRPTEAKKAADEAKMRFAHIDGDHLTLLNVYHAFKQNHESVQWCYDNFINYRSLMSADNVRQQLSRIMDRFNLPRRSTDFTSRDYYINIRKALVTGYFMQVAHLERTGHYLTVKDNQVVQLHPSTVLDHKPEWVLYNEFVLTTKNYIRTCTDIKPEWLVKIAPQYYDMSNFPQCEAKRQLDRIIAKLQSKEYSQY
B8: AT2A2_HUMAN (protein, UniProt P16615 1-1042, looked up)
Sarcoplasmic/endoplasmic …: MENAHTKTVEEVLGHFGVNESTGLSLEQVKKLKERWGSNELPAEEGKTLLELVIEQFEDLLVRILLLAACISFVLAWFEEGEETITAFVEPFVILLILVANAIVGVWQERNAENAIEALKEYEPEMGKVYRQDRKSVQRIKAKDIVPGDIVEIAVGDKVPADIRLTSIKSTTLRVDQSILTGESVSVIKHTDPVPDPRAVNQDKKNMLFSGTNIAAGKAMGVVVATGVNTEIGKIRDEMVATEQERTPLQQKLDEFGEQLSKVISLICIAVWIINIGHFNDPVHGGSWIRGAIYYFKIAVALAVAAIPEGLPAVITTCLALGTRRMAKKNAIVRSLPSVETLGCTSVICSDKTGTLTTNQMSVCRMFILDRVEGDTCSLNEFTITGSTYAPIGEVHKDDKPVNCHQYDGLVELATICALCNDSALDYNEAKGVYEKVGEATETALTCLVEKMNVFDTELKGLSKIERANACNSVIKQLMKKEFTLEFSRDRKSMSVYCTPNKPSRTSMSKMFVKGAPEGVIDRCTHIRVGSTKVPMTSGVKQKIMSVIREWGSGSDTLRCLALATHDNPLRREEMHLEDSANFIKYETNLTFVGCVGMLDPPRIEVASSVKLCRQAGIRVIMITGDNKGTAVAICRRIGIFGQDEDVTSKAFTGREFDELNPSAQRDACLNARCFARVEPSHKSKIVEFLQSFDEITAMTGDGVNDAPALKKAEIGIAMGSGTAVAKTASEMVLADDNFSTIVAAVEEGRAIYNNMKQFIRYLISSNVGEVVCIFLTAALGFPEALIPVQLLWVNLVTDGLPATALGFNPPDLDIMNKPPRNPKEPLISGWLFFRYLAIGCYVGAATVGAAAWWFIAADGGPRVSFYQLSHFLQCKEDNPDFEGVDCAIFESPYPMTMALSVLVTIEMCNALNSLSENQSLLRMPPWENIWLVGSICLSMSLHFLILYVEPLPLIFQITPLNVTQWLMVLKISLPVILMDETLKFVARNYLEPGKECVQPATKSCSFSACTDGISWPFVLLIMPLVIWVYSTDTNFSDMFWS

For the experiment, the system named is KDM4A-I71AzF. The experiment is described as follows: CASI: photo-crosslinking with HEK293T cell extracts, StrepTactin enrichment and LC-MS/MS proteomics.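 Further: lysates from HEK293T cells pretreated with a KDM4 inhibitor to raise proteome methylation, affinity-purified after ±UV, gel-resolved, trypsin-digested, with exclusive unique peptides per protein averaged per condition.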 It counts as binding, human. Particulars: sheet "Final results but with 0.01".
For the molecule B1, the “Fold change (+UV/-UV)” value came to 0.

With B2, the “Fold change (+UV/-UV)” value is on record as 0.7273.

As to B3, the “Fold change (+UV/-UV)” value was determined as 0.5.

With B4, the “Fold change (+UV/-UV)” value turned out to be 0.875.

For B5, the “Fold change (+UV/-UV)” value was 3.

In the case of B6, the “Fold change (+UV/-UV)” value is given as 1.

For B7, the “Fold change (+UV/-UV)” value is 1.071.

Turning to B8, the “Fold change (+UV/-UV)” value amounted to 0.75.
